Test results published in patent publication US20240013853A1 (University of Washington, published 2024).

What was measured:
[1] = molecular target: the molecule itself; experiment: X-ray crystal structure; self-association of protomers
Description: (§1) 19 designs were chosen to undergo crystallization screens. Each design was expressed as described above in 0.5 L cultures. […] Following SEC, 2 mM of NiCl₂ was added and the solution was incubated overnight at 37° C. Following cleavage, the solutions containing the cleaved protein products were incubated with 1 mL Ni-NTA resin to bind any uncleaved product, and the flow through was collected. Following SEC into Crystallization buffer (20 mM Tris, 50 mM NaCl, pH 8.0), each sample was concentrated to approximately 15 mg mL⁻¹. The following sitting drop broad screens were set up at room temperature with three protein:crystallization condition ratios (1:1, 1:2, 2:1) using the mosquito pipetting instrument (sptlabtech): Midas™ (Molecular Dimensions), Proplex™ (Molecular Dimensions), JCSG+™ (Molecular Dimensions), Morpheus™ (Molecular Dimensions), Pact Premier™ (Molecular Dimensions), LMB™ (Molecular Dimensions), Index™ (Hampton Research) and PGA™ (Molecular Dimensions). Each was monitored weekly for crystal growth using the JANSi UVEX imaging system.
Where required, crystals were cryoprotected with 20% glycerol or 25% ethylene glycol prior to flash freezing in liquid nitrogen. Data collection was done using the Advanced Photon Source synchrotron. Images were integrated using XDS 20220110 (37). Aimless (38) was used for scaling and merging. Phaser™ 2.8 (39) was used for molecular replacement using the design models as search models (either monomer or oligomeric complex). Models were built using Coot 0.9.8 (40) and refined with Phenix ™ refine from Phenix™ 1.20 (41) and RefMac™ (42) from CCP4 7.1 (38) suite. All structures were validated using MolProbity™ 4.5.1(43).

[2] = molecular target: the molecule itself; experiment: negative stain EM, 2D class averages and 3D maps; self-association of protomers (pentamer)
Description: (§2) Next, we selected three designs: one C15 homo-pentamer (HALC5-15_262), one C18 homo-hexamer (HALC6-18_265) and one C33 homo-trimer (HALC3-33_343) for high-resolution single particle cryoEM characterization.
(§3) SEC fractions corresponding to the designs were concentrated in TBS prior to negative stain EM screening. Samples were then immediately diluted 5 to 150 times in TBS buffer (25 mM Tris, 100 mM NaCl, pH 8.0) depending on the concentration of the samples. A final volume of 5 μL was applied on negatively glow discharged, carbon-coated 400-mesh copper grids (01844-F, TedPella Inc.), then washed with Milli-Q Water and stained using 0.75% uranyl formate as previously described (44). Air-dried grids were then imaged on either a FEI Talos™ L120C TEM (FEI Thermo Scientific) equipped with a 4K×4K Gatan OneView™ camera at a magnification of 57,000× and pixel size of 2.5 Å. Micrographs collection was automated using EPU™ software (FEI Thermo Scientific) and were imported into CisTEM™ software (45) or cryoSPARC™ software (46, 47). CTF estimation was done with CTFFIND4 and a circular blob picker was used to select particles which were then subjected to 2D classification. Ab initio reconstruction and homogeneous refinement in Cn symmetry were used to generate 3D electron density maps. All EM maps can be found in supplementary data.

[3] = molecular target: the molecule itself; experiment: X-ray crystallography; self-association of protomers (homo-dimer)
Description: as §1
Where required, crystals were cryoprotected with 20% glycerol or 25% ethylene glycol prior to flash freezing in liquid nitrogen. Data collection was done using the Advanced Photon Source synchrotron. Images were integrated using XDS 20220110 (37). Aimless (38) was used for scaling and merging. […]

[4] = molecular target: the molecule itself; experiment: negative stain EM, 2D class averages and 3D maps; self-association of protomers (hexamer)
Description: as §2, §3

[5] = molecular target: the molecule itself; experiment: negative stain EM, 2D class averages and 3D maps; self-association of protomers (heptamer)
Description: as §2, §3

[6] = molecular target: the molecule itself; experiment: single particle cryoEM; self-association of protomers

B1: HALC4_135 (other)
chain: MEKFKEQLLEEVKKIVLETMTKVMEHLEKWFVTLAEIIITKSEEKLEELKETMEKSIEELRKEAE
notes: De novo designed protomer; pair is protomer with identical protomer (C4 homo-tetramer)
B1: binds [1].

B2: HALC20-5_308 (other)
chain: SLGWKVLLHLDLTWYPGADYTIDHDDMTRAARALAHGFERAAHSFAEAIGSTGSLGWKVLLHLDLTWYPGADYTIDHDDMTRAARALAHGFERAAHSFAEAIGSTGSLGWKVLLHLDLTWYPGADYTIDHDDMTRAARALAHGFERAAHSFAEAIGSTGSLGWKVLLHLDLTWYPGADYTIDHDDMTRAARALAHGFERAAHSFAEAIGSTG
notes: De novo designed protomer; pair is protomer with identical protomer (C20 internal symmetry, homo-pentamer); not shown: C-terminal His tag
B2: binds [2].

B3: HALC2_062 (other)
chain: MARVEYSYEKLNDTHYKLKLKVTYEYRKSPEARRLAEDLVQAFVDALSSLPFITVEYEVEEVEVE
notes: De novo designed protomer; the entry is one protomer and the pair is protomer with identical protomer (C2 homo-dimer)
B3: binds [3].

B4: HALC3_104 (other)
chain: KRIDEIESKLKHLEEFTTHLIKLMETMLELLKLVSDGKSDSEEYKELLEKAEEYLKQATEAAKKI
notes: De novo designed protomer; pair is protomer with identical protomer (C3 homo-trimer)
B4: binds [1].

B5: HALC24-6_316 (other)
chain: SKEKLGIQQDLFEGIIATLLSHKDPRVLYLMVTILKLTGSSPSKEKLGIQQDLFEGIIATLLSHKDPRVLYLMVTILKLTGSSPSKEKLGIQQDLFEGIIATLLSHKDPRVLYLMVTILKLTGSSPSKEKLGIQQDLFEGIIATLLSHKDPRVLYLMVTILKLTGSSP
notes: De novo designed protomer; pair is protomer with identical protomer (C24 internal symmetry, homo-hexamer); not shown: C-terminal His tag
B5: binds [4].

B6: HALC42-7_351 (other)
chain: PSLTLNDFGDLGKGLGEGLQGMENLEKLQLTITLKLTVSTPSLTLNDFGDLGKGLGEGLQGMENLEKLQLTITLKLTVSTPSLTLNDFGDLGKGLGEGLQGMENLEKLQLTITLKLTVSTPSLTLNDFGDLGKGLGEGLQGMENLEKLQLTITLKLTVSTPSLTLNDFGDLGKGLGEGLQGMENLEKLQLTITLKLTVSTPSLTLNDFGDLGKGLGEGLQGMENLEKLQLTITLKLTVST
notes: De novo designed protomer; pair is protomer with identical protomer (C42 internal symmetry, homo-heptamer); not shown: C-terminal His tag
B6: binds [5].

B7: HALC6_220 (other)
chain: PPIPPPSFKLEISPAFLELVQLVIDLHPNDEEVRKELIENLISRIGKSDNVPPETISLDISEAALELFEWIFEKFPDDEDVHRRLIESFINKRKFSSSSPLDTPSLDISERFIELVKYILEKYPEDEEIKQKLIDSLLNLLGSY
notes: De novo designed protomer; pair is protomer with identical protomer (C6 homo-hexamer); not shown: C-terminal His tag
B7: binds [4].

B8: HALC3_109 (other)
chain: REEIEEAVKEAELKVLAIVLVALRSVSHYEPLSRLYESFLDALKKALSEEELKEVEKEAERIEKK
notes: as for B4
B8: binds [1].

B9: HALC25-5_341 (other)
chain: EGAAIAENLATAYQGIGETLPSLQDLRVLHLSVIFSAEGSSPEGAAIAENLATAYQGIGETLPSLQDLRVLHLSVIFSAEGSSPEGAAIAENLATAYQGIGETLPSLQDLRVLHLSVIFSAEGSSPEGAAIAENLATAYQGIGETLPSLQDLRVLHLSVIFSAEGSSPEGAAIAENLATAYQGIGETLPSLQDLRVLHLSVIFSAEGSSP
notes: De novo designed protomer; pair is protomer with identical protomer (C25 internal symmetry, homo-pentamer); not shown: C-terminal His tag
B9: binds [2].

B10: HALC33-3_343 (other)
chain: PSNWPEVAKYFDLGKALKPIGEGLQNLKNLKHLDLSFSFSLELYPGLPSNWPEVAKYFDLGKALKPIGEGLQNLKNLKHLDLSFSFSLELYPGLPSNWPEVAKYFDLGKALKPIGEGLQNLKNLKHLDLSFSFSLELYPGLPSNWPEVAKYFDLGKALKPIGEGLQNLKNLKHLDLSFSFSLELYPGLPSNWPEVAKYFDLGKALKPIGEGLQNLKNLKHLDLSFSFSLELYPGLPSNWPEVAKYFDLGKALKPIGEGLQNLKNLKHLDLSFSFSLELYPGLPSNWPEVAKYFDLGKALKPIGEGLQNLKNLKHLDLSFSFSLELYPGLPSNWPEVAKYFDLGKALKPIGEGLQNLKNLKHLDLSFSFSLELYPGLPSNWPEVAKYFDLGKALKPIGEGLQNLKNLKHLDLSFSFSLELYPGLPSNWPEVAKYFDLGKALKPIGEGLQNLKNLKHLDLSFSFSLELYPGLPSNWPEVAKYFDLGKALKPIGEGLQNLKNLKHLDLSFSFSLELYPGL
notes: De novo designed protomer; pair is protomer with identical protomer (C33 internal symmetry, homo-trimer); not shown: C-terminal His tag
B10: binds [6].

B11: HALC2_068 (other)
chain: MIKVPEDLERIGRELRARGLDTKRLLEEGPKLYPELSIPDLMAIALYDHLNLDPEFLYRLLQQSR
notes: De novo designed protomer; pair is protomer with identical protomer (C2 homo-dimer)
B11: binds [1].

B12: HALC15-5_262 (other)
chain: DVPLTDPKNLNEFLYALGEGLKGMKNLKKLTLTFPSNPLTIPGDISEGFRELGEGLKGMKNLEELTVTFNDVPLTDPKNLNEFLYALGEGLKGMKNLKKLTLTFPSNPLTIPGDISEGFRELGEGLKGMKNLEELTVTFNDVPLTDPKNLNEFLYALGEGLKGMKNLKKLTLTFPSNPLTIPGDISEGFRELGEGLKGMKNLEELTVTFN
notes: De novo designed protomer; pair is protomer with identical protomer (C15 internal symmetry, homo-pentamer); also called HALC5-15_262; HALC5-15 262; not shown: C-terminal His tag
B12: binds [6].
